Laboratory results as given in patent US10538591B2, “Anti-fibulin-3 antibodies and uses thereof” (THE BRIGHAM AND WOMEN'S HOSPITAL, INC., priority 2014, dated 2020).
“Also recorded” adds a separate entry of the source.

Columns and labels:
[1] = tested on: NFkB signaling induced by fibulin-3; assay: NF-kB luminescent reporter in U251 glioma cells transfected with fibulin-3 cDNA; format: cell-based; settings: 100 μg/ml, 0, 2, 6 and 24 h
Protocol: Glioma cells (U251 line) were transfected with a luminescent reporter plasmid driven by NF-kB signaling (pGL4.32[luc2P/NF-κB-RE/Hygro], PROMEGA). Cells were co-transfected with plasmids carrying fibulin-3 cDNA (Fib3 OE) or a control cDNA (Control) and incubated in serum-free conditions for 24 h. The following day mAb428.2 (100 μg/ml) was added to the cultures and NFkB signaling activity was measured after 0, 2, 6, and 24 h.

[2] = tested on: GBM34 glioblastoma stem cells; assay: Intratumoral injection in subcutaneous GBM34 xenografts; format: in vivo, Athymic mice
Protocol: (§1) Athymic mice received sub-cutaneous (SQ) bilateral implants of GBM34 glioblastoma stem cells (1×10^6 cells/50 μl). Tumors were allowed to grow until they reached a volume of 100 mm^3. Animals (N=5/group) were then injected with mAb428.2 (10 mg/kg) in the left-side tumor and non-immune mouse IgG1 in the right-side tumor, every two days (total: 4 injections). Mice were sacrificed when any of their tumors reached a length >18 mm. […] Growth curves were analyzed by repeated-measures ANOVA and final parameters were compared by paired T-test.
as §1, with “received SQ” for “received sub-cutaneous (SQ)”, “Animals (N=3/group)” for “Animals (N=5/group)”, “with mAb428.3C11 (30” for “with mAb428.2 (10”, “(total: 3” for “(total: 4”, “length >=20” for “length >18”

[3] = tested on: GBM34 glioblastoma stem cells; assay: BrdU uptake in tumors after intravenous treatment; format: in vivo, mice; settings: 8×30 mg/kg IV, BrdU 1 h before euthanasia
Protocol: Control and tumor mice studied in FIG. 11 for overall survival (treated with antibody 8×30 mg/kg, IV) were injected with 5-bromo-2′-deoxyuridine (BrdU, 50 mg/kg, IP) 1 h before euthanasia. BrdU staining of actively dividing cells. Tumors from 3 mice per group were processed for immunohistochemistry to detect BrdU uptake, corresponding to actively dividing cells. Tissue sections were imaged by fluorescence microscopy and quantified blindly using ImageJ image analysis software. DAPI was used to stain cell nuclei. Results were expressed as number of BrdU-positive cells per unit of tumor area. […] (Data not shown).

[4] = tested on: Normal human astrocytes; assay: Viability of normal human astrocytes; format: cell-based; settings: mAb428.2, conditions not given
Protocol: Normal human astrocytes and glioma cell lines (U251MG, U87MG and CNS1) were cultured as adherent cells in 96-well plates (10,000 cells/well). Three primary cultures of glioma-initiating cells (GBM8, GBM9 and GBM34) were cultured in suspension using appropriate medium in 96-well plates (25,000 cells/well). All cells were exposed to anti-Fib3/911 (50 μg/mL) or its pre-immune serum for 72 h, followed by measurement of cell viability as indicated in FIG. 5. […] In contrast, normal astrocytes were not affected by the antibody (** p<0.01; *** p<0.001, one-way ANOVA for each cell line)
Antibodies against fibulin-3 induce cytotoxicity in a wide range of glioma cells but not in normal cells. […] This antibody was added to cultures of different glioma cell lines (U251MG, U87MG, CNS1) as well as cultures of glioma initiating cells that produce large amounts of fibulin-3 (GBM8, GBM9, GBM34). […] Vehicle control (PBS) and the pre-immune serum of anti-fibulin-3/91I were tested as controls. Cell viability was measured after 72 hours. […] Neither the vehicle nor the pre-immune serum affected cell viability (FIG. 7).

[5] = tested on: GBM34 glioblastoma stem cells; assay: Intravenous injection in subcutaneous GBM34 xenografts, growth and overall survival; format: in vivo, Athymic mice
Protocol: Athymic mice received SQ bilateral implants of GBM34 glioblastoma stem cells (1×10^6 cells/50 μl). Tumors were allowed to grow until they reached a volume of 100 mm^3. Animals (N=5/group) were then injected with mAb428.2 (30 mg/kg) or non-immune mouse IgG1 every day, for a total of 8 days (total: 8 injections). Mice were monitored for tumor growth and sacrificed when any of their tumors reached a length >=20 mm. Long-term survivors (>40 days) in which length was not increasing above 20 mm were euthanized when tumors reached width >=15 mm or presented ulcerations. […] Curves for overall survival were compared by long-rank test

[6] = mouse, in vivo
[7] = biological target: T1, fibulin-4 (Homo sapiens, UniProt O95967); assay: Cross-reactivity against homologous fibulin-4; format: binding
T1 sequence (O95967 24-443): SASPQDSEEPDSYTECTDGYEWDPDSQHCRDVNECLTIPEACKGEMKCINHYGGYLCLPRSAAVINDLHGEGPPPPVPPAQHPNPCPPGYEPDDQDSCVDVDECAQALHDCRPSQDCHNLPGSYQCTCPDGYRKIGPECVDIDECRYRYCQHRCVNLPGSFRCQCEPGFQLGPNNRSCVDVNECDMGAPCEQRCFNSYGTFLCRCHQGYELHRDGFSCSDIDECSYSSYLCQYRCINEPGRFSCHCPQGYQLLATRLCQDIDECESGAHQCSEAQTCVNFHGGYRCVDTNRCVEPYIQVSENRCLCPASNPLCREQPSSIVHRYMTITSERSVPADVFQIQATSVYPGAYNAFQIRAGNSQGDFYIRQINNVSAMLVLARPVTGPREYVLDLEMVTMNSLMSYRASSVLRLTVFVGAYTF

B1: mAb428.2: mouse monoclonal IgG1 kappa antibody against human fibulin-3 peptide SEQ ID NO:2; VH SEQ ID NO: 3, VL SEQ ID NO: 4 (antibody, V domains shown)
VH: QIQLVQSGPELKKPGETVKISCKASGYSFTTYGMSWVKQAPGKGLKWMGWINTYSGVPTYADDFKGRFAFFLETSASTAYLQINNLKNEDTATYFCARWVDYWGQGTTLTVSS
VL: DIKMTQSPSSMYASLGERVTITCKASQDIKSYLSWHQQKPWKSPKTLIYYATSLADGVPSRFSGSGSGQDYSLTISSLESDDTATYYCLQHGKSPYTFGGGTKLEIK
effect on fibulin-3-induced NFkB signaling [1]: blocking of this effect | tumor volume and weight compared to control IgG1 ([2]; 10 mg/kg intratumoral every two days, 4 injections): reduction in tumor volume and weight | tumor volume and weight compared to control IgG1 ([2]; 30 mg/kg intratumoral every two days, 3 injections): reduction in tumor volume and weight | median volume reduction ([2]; direct intratumoral injection, GBM stem cell xenograft): 45% | tumor cell division (BrdU-positive cells per unit of tumor area) [3]: significant decrease in tumor cell division | effect on normal astrocytes [4]: without effects on normal astrocytes | overall survival compared to control IgG1 ([5]; 30 mg/kg IV every day, 8 injections): extended overall survival two-fold; also recorded: significant prolongation of overall survival | tumor growth ([5]; IV 8×30 mg/kg): significant delay in tumor growth | accumulation in skin or connective tissues [6]: did not accumulate in these tissues | amount detected through the skull [6]: very small but higher than the amount of a control IgG1 antibody | detection in intracranial tumors [6]: not detected in significant amounts | detection in subcutaneous tumors ([6]; 2.5 mg/kg): still detectable with high intensity of fluorescence | time of accumulation in the liver ([6]; 2.5 mg/kg): >= 6 | time of accumulation of fluorescence in the bladder ([6]; 2.5 mg/kg): 2 h | time of clearance from bladder and liver ([6]; 2.5 mg/kg): >= 24 h | cross-reactivity against fibulin-4 [7]: no cross-reactivity
